The values below come from patent US20150344570A1 (published 2015).

T1: FcγRIIb (human, UniProt P31994 43-217)
T1 construct: extracellular domain; also called 2b; not shown: His tag at the C terminus
T1 sequence (looked up): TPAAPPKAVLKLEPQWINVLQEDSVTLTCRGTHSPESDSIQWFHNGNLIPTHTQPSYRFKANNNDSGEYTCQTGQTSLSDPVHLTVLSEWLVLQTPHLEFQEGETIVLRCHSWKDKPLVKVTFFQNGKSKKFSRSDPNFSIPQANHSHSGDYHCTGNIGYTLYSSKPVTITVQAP

T2: FcγRIIa H (human, UniProt P12318 34-217)
T2 construct: extracellular domain; also called FcγRIIa type H; 2aH; not shown: His tag at the C terminus
T2 sequence (looked up): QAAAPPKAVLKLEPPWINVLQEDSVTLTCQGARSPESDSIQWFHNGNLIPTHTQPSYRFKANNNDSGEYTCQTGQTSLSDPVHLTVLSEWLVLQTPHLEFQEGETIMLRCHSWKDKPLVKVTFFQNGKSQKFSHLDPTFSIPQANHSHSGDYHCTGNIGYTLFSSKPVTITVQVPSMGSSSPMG

T3: human FcγRIIb extracellular domain with C-terminal His tag (human, UniProt P31994 43-217)
T3 construct: extracellular domain; also called FcgRIIb; 2b; not shown: His tag attached to the C terminus
T3 sequence (looked up): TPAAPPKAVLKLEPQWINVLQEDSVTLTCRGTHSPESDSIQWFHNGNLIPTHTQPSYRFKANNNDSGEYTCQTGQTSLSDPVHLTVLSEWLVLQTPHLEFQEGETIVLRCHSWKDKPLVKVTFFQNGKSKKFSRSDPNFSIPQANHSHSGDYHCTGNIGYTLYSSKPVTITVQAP

B1: GpH7-A5/GpH7-B3 variant Y300_08L/GpL16-k0 (antibody, human IgG1, kappa)
heavy 1: not shown
heavy 2: not shown
light: DIVMTQSPLSLPVTPGEPASISCQASESLVHSNRNTYLHWYLQKPGQSPQLLIYKVSNRFSGVPDRFSGSGSGTDFTLKISRVEAEDVGVYYCSQNTHVPPTFGQGTKVEIERTVAAPSVFIFPPSDEQLKSGTASVVCLLNNFYPREAKVQWKVDNALQSGNSQESVTEQDSKDSTYSLSSTLTLSKADYEKHKVYACEVTHQGLSSPVTKSFNRGEC
notes: Heterodimerized IgG1; mutation in the GpH7-B3 chain only; also called He Ab
B2: GpH7-B3 variant L328_03V/GpL16-k0 (Ho Ab) (antibody, human IgG1, kappa)
heavy: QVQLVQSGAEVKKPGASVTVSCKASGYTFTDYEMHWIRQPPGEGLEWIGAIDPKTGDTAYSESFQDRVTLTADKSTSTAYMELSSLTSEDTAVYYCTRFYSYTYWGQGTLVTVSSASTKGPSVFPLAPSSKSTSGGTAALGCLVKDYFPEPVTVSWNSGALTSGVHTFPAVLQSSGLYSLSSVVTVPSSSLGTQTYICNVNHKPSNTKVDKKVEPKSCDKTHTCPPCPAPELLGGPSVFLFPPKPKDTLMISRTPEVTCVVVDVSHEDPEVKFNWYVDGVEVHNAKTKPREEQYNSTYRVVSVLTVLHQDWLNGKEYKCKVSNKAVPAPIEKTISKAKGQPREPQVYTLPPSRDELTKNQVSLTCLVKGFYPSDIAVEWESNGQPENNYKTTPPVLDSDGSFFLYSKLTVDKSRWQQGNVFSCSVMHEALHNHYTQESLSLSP
light: DIVMTQSPLSLPVTPGEPASISCQASESLVHSNRNTYLHWYLQKPGQSPQLLIYKVSNRFSGVPDRFSGSGSGTDFTLKISRVEAEDVGVYYCSQNTHVPPTFGQGTKVEIERTVAAPSVFIFPPSDEQLKSGTASVVCLLNNFYPREAKVQWKVDNALQSGNSQESVTEQDSKDSTYSLSSTLTLSKADYEKHKVYACEVTHQGLSSPVTKSFNRGEC
notes: Anti-glypican-3 IgG1; mutation in both H chains; also called L328V homodimerized antibody
B3: GpH7-B3 variant S239_01G/GpL16-k0 (Ho Ab) (antibody, human IgG1, kappa)
heavy: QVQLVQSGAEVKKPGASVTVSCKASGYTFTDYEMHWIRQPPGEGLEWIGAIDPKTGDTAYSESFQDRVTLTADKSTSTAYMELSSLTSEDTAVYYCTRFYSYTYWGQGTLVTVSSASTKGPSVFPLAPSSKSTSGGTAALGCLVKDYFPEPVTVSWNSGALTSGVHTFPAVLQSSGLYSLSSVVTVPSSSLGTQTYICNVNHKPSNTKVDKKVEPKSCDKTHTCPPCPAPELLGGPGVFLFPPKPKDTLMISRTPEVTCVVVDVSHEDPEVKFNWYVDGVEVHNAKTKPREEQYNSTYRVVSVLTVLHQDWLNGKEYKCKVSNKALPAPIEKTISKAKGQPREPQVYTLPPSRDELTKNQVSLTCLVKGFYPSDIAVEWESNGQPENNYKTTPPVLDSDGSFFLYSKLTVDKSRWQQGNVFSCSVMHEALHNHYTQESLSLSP
light: DIVMTQSPLSLPVTPGEPASISCQASESLVHSNRNTYLHWYLQKPGQSPQLLIYKVSNRFSGVPDRFSGSGSGTDFTLKISRVEAEDVGVYYCSQNTHVPPTFGQGTKVEIERTVAAPSVFIFPPSDEQLKSGTASVVCLLNNFYPREAKVQWKVDNALQSGNSQESVTEQDSKDSTYSLSSTLTLSKADYEKHKVYACEVTHQGLSSPVTKSFNRGEC
notes: Anti-glypican-3 IgG1; mutation in both H chains; also called S239G homodimerized antibody
B4: GpH7-B3 variant K334_19Q/GpL16-k0 (Ho Ab) (antibody, human IgG1, kappa)
heavy: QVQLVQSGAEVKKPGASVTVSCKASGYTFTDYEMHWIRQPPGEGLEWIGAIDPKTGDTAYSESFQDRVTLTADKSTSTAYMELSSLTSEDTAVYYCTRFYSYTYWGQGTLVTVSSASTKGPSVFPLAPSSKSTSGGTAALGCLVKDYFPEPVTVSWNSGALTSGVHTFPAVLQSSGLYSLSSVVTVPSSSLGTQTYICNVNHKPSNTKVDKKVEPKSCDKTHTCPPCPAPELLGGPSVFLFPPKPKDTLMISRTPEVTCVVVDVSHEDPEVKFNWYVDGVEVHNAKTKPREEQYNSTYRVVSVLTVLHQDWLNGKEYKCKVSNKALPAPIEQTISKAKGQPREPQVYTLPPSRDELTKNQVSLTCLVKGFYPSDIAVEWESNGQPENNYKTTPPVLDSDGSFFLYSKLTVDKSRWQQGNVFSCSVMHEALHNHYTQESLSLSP
light: DIVMTQSPLSLPVTPGEPASISCQASESLVHSNRNTYLHWYLQKPGQSPQLLIYKVSNRFSGVPDRFSGSGSGTDFTLKISRVEAEDVGVYYCSQNTHVPPTFGQGTKVEIERTVAAPSVFIFPPSDEQLKSGTASVVCLLNNFYPREAKVQWKVDNALQSGNSQESVTEQDSKDSTYSLSSTLTLSKADYEKHKVYACEVTHQGLSSPVTKSFNRGEC
notes: Anti-glypican-3 IgG1; mutation in both H chains; also called K334Q homodimerized antibody
B5: GpH7-B3 variant L328_04F/GpL16-k0 (Ho Ab) (antibody, human IgG1, kappa)
heavy: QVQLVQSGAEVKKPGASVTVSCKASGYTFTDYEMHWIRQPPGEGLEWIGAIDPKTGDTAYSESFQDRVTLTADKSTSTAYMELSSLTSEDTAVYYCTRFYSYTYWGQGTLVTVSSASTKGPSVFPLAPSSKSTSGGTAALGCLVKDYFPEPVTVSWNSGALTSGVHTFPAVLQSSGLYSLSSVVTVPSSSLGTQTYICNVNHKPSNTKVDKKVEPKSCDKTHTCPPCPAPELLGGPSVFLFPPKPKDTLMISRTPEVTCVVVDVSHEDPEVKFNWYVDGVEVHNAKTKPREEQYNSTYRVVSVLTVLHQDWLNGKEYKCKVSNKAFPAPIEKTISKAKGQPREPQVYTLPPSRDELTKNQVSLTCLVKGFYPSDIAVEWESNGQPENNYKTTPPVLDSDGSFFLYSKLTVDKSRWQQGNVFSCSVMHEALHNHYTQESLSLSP
light: DIVMTQSPLSLPVTPGEPASISCQASESLVHSNRNTYLHWYLQKPGQSPQLLIYKVSNRFSGVPDRFSGSGSGTDFTLKISRVEAEDVGVYYCSQNTHVPPTFGQGTKVEIERTVAAPSVFIFPPSDEQLKSGTASVVCLLNNFYPREAKVQWKVDNALQSGNSQESVTEQDSKDSTYSLSSTLTLSKADYEKHKVYACEVTHQGLSSPVTKSFNRGEC
notes: Anti-glypican-3 IgG1; mutation in both H chains; also called L328F homodimerized antibody
B6: GpH7-B3 variant P271_08L/GpL16-k0 (Ho Ab) (antibody, human IgG1, kappa)
heavy: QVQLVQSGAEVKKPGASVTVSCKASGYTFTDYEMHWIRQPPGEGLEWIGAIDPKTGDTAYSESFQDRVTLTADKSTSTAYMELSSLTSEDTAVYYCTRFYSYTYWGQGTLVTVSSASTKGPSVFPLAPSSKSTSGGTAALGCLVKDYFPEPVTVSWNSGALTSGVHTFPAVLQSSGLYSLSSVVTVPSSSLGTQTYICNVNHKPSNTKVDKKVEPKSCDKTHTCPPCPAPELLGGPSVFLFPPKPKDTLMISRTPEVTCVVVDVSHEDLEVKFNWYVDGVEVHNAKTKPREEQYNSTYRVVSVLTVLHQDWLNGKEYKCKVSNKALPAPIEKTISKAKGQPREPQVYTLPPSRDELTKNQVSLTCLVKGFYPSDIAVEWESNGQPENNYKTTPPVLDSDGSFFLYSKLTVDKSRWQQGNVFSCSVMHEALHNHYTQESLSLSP
light: DIVMTQSPLSLPVTPGEPASISCQASESLVHSNRNTYLHWYLQKPGQSPQLLIYKVSNRFSGVPDRFSGSGSGTDFTLKISRVEAEDVGVYYCSQNTHVPPTFGQGTKVEIERTVAAPSVFIFPPSDEQLKSGTASVVCLLNNFYPREAKVQWKVDNALQSGNSQESVTEQDSKDSTYSLSSTLTLSKADYEKHKVYACEVTHQGLSSPVTKSFNRGEC
notes: Anti-glypican-3 IgG1; mutation in both H chains; also called P271L homodimerized antibody
B7: GpH7-B3 variant K334_18N/GpL16-k0 (Ho Ab) (antibody, human IgG1, kappa)
heavy: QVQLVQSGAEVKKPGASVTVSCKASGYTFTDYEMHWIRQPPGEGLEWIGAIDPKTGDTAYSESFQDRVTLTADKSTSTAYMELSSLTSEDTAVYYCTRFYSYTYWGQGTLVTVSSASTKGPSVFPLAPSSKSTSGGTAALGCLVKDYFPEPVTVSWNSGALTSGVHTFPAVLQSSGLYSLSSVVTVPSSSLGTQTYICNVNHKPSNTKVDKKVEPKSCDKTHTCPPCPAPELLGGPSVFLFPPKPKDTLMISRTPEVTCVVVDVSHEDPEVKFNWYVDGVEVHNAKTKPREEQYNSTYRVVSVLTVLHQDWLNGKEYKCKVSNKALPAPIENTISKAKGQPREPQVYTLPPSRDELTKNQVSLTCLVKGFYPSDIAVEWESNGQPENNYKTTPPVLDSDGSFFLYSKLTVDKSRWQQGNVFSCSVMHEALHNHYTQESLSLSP
light: DIVMTQSPLSLPVTPGEPASISCQASESLVHSNRNTYLHWYLQKPGQSPQLLIYKVSNRFSGVPDRFSGSGSGTDFTLKISRVEAEDVGVYYCSQNTHVPPTFGQGTKVEIERTVAAPSVFIFPPSDEQLKSGTASVVCLLNNFYPREAKVQWKVDNALQSGNSQESVTEQDSKDSTYSLSSTLTLSKADYEKHKVYACEVTHQGLSSPVTKSFNRGEC
notes: Anti-glypican-3 IgG1; mutation in both H chains; also called K334N homodimerized antibody
B8: GpH7-B3 variant P271_01G/GpL16-k0 (Ho Ab) (antibody, human IgG1, kappa)
heavy: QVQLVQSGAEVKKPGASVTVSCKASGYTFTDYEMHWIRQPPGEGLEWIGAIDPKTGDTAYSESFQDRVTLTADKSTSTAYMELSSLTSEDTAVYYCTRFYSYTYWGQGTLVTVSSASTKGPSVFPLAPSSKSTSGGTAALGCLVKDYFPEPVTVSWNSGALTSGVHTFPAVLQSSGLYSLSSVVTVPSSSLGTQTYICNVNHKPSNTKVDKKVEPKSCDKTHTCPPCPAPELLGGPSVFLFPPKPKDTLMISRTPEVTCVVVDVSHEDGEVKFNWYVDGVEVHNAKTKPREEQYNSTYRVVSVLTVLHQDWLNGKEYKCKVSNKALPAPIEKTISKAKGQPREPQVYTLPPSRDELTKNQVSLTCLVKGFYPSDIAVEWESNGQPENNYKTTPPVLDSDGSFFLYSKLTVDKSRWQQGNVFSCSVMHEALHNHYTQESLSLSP
light: DIVMTQSPLSLPVTPGEPASISCQASESLVHSNRNTYLHWYLQKPGQSPQLLIYKVSNRFSGVPDRFSGSGSGTDFTLKISRVEAEDVGVYYCSQNTHVPPTFGQGTKVEIERTVAAPSVFIFPPSDEQLKSGTASVVCLLNNFYPREAKVQWKVDNALQSGNSQESVTEQDSKDSTYSLSSTLTLSKADYEKHKVYACEVTHQGLSSPVTKSFNRGEC
notes: Anti-glypican-3 IgG1; mutation in both H chains; also called P271G homodimerized antibody
B9: GpH7-B3 variant K334_15Y/GpL16-k0 (Ho Ab) (antibody, human IgG1, kappa)
heavy: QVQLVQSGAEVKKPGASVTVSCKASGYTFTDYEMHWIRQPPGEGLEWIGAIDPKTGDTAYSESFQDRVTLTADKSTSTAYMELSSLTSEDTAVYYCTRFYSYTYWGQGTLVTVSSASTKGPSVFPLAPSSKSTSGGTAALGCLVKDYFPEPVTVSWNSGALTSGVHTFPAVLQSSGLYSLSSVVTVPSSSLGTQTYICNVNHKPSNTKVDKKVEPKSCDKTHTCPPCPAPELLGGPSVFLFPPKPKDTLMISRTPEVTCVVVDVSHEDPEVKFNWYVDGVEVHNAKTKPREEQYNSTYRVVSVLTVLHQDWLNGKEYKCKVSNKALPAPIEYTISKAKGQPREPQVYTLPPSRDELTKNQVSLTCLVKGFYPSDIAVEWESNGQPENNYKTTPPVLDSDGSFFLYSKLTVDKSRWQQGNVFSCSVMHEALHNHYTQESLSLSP
light: DIVMTQSPLSLPVTPGEPASISCQASESLVHSNRNTYLHWYLQKPGQSPQLLIYKVSNRFSGVPDRFSGSGSGTDFTLKISRVEAEDVGVYYCSQNTHVPPTFGQGTKVEIERTVAAPSVFIFPPSDEQLKSGTASVVCLLNNFYPREAKVQWKVDNALQSGNSQESVTEQDSKDSTYSLSSTLTLSKADYEKHKVYACEVTHQGLSSPVTKSFNRGEC
notes: Anti-glypican-3 IgG1; mutation in both H chains; also called K334Y homodimerized antibody

The first experiment deals with T1, FcγRIIb. Nature of the experiment: SPR (Biacore), antibody captured, FcγR as analyte; binding relative to GpH7-A5/GpH7-B3/GpL16-k0 = 100. The procedure: (§1) The heterodimerized antibodies He Abs in which one of the H chains was introduced with an alteration were assayed for their binding activities to each activating FcγR and inhibitory FcγR according to the method described in Example 4. […] The activating FcγRs in FIGS. 26, 27, 28, and 29 are FcγRIa, FcγRIIa (R), FcγRIIa (H), and FcγRIIIa, respectively.
(§2) Analysis of interaction between objective antibody and the FcγR was carried out using Biacore T100 (GE Healthcare). HBS-EP+ (GE Healthcare) was used as the running buffer, and the measurement temperature was set to 25° C. Chips produced by immobilizing the antigen peptide by the amine coupling method to a Series S Sencor Chip CM5 (GE Healthcare), or alternatively, chips produced by allowing preliminarily biotinylated antigen peptides to interact with and immobilize onto a Series S Sensor Chip SA (certified) (GE Healthcare) were used. Antibodies of interest were captured onto an antigen peptide-immobilized chip, and allowed to interact to each FcγR diluted with running buffer. To regenerate and repeatedly use the chip, the antibodies captured on the chip were washed off by reacting 10 mM glycine-HCl, pH 1.5.
(In SPR one partner is held on a chip, and binding of the other changes the refractive index at the surface.)
Regarding B1, the He/Con_2b is 73.6 % of control.

A further experiment addresses T2, FcγRIIa H. The description is as above. The procedure:
as §1, §2
As to B1, the He/Con_2aH was 108 % of control.

In another experiment the target is T3, human FcγRIIb extracellular domain with …. Nature of the experiment: SPR (Biacore T100), antibody captured on antigen peptide chip, FcγRIIb as analyte; relative binding. The procedure:
as §2
Regarding B2, the Ho/Con_2b was 135 % of control GpH7-B3/GpL16-k0 (=100). On to B3, for which the Ho/Con_2b is 174 % of control GpH7-B3/GpL16-k0 (=100). Consider B4, for which the Ho/Con_2b was 117 % of control GpH7-B3/GpL16-k0 (=100). For the molecule B5, the Ho/Con_2b was 241 % of control GpH7-B3/GpL16-k0 (=100). As to B6, the Ho/Con_2b is 113 % of control GpH7-B3/GpL16-k0 (=100). In the case of B7, the Ho/Con_2b was 128 % of control GpH7-B3/GpL16-k0 (=100). Turning to B8, the Ho/Con_2b was 229 % of control GpH7-B3/GpL16-k0 (=100). Consider B9, for which the Ho/Con_2b is 126 % of control GpH7-B3/GpL16-k0 (=100).
